From US20220119534A1 (DRAGONFLY THERAPEUTICS, published 2022)
Where a chain is given by its changes, count along the chain named. Numbers in names are those of the source.

Assays:
mFc-hNKG2D [1] = biological target: T1, mFc-hNKG2D (human, UniProt P26718 73-216); assay: SPR Biacore 8K 37 C; mFc-hNKG2D captured on anti-mFc chip, TriNKET as analyte; steady state fit; control sample
T1 construct: extracellular domain; Made in house (Dragonfly Tx); the order of tag and ECD follows the name mFc-hNKG2D; also called mFc-tagged human NKG2D; not shown: mouse Fc tag
T1 sequence (looked up): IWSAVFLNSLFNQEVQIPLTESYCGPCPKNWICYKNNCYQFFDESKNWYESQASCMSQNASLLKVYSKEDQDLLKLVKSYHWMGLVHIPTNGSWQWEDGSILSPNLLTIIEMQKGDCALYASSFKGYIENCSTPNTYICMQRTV

Human CLEC12A-His [2] = biological target: T2, Human CLEC12A-His (human, UniProt Q5QGZ9 65-265); assay: SPR Biacore 8K 37 C; TriNKET captured on anti-hFc chip, hCLEC12A-His as analyte; 1:1 fit; after 0.02% H2O2 24 h, n=2
T2 construct: Recombinant soluble protein made in house (Dragonfly Tx); The hCLEC12A spot of the HuProt array is written under this molecule as well; also called hCLEC12A-His; hCLEC12A; not shown: His tag
T2 sequence: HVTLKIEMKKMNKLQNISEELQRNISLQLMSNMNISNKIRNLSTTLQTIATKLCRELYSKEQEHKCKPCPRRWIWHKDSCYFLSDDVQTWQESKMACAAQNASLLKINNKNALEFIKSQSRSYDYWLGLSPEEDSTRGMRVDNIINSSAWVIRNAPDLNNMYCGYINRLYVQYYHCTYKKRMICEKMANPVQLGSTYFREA

mFc-hNKG2D [3] = biological target: T1, mFc-hNKG2D; assay: SPR Biacore 8K 37 C; mFc-hNKG2D captured on anti-mFc chip, TriNKET as analyte; 1:1 kinetic fit; pH 8.0 control
Protocol: (§1) Association was monitored for 60 seconds and dissociation was monitored for 60 seconds. Surfaces were regenerated between cycles with three pulses of 10 mM glycine-HCl, pH 1.7 injected for 20 seconds at 100 μL/min. HBS-EP+ (1×) buffer was used throughout the experiment. Data were analyzed using Biacore 8K Insight evaluation software (GE Healthcare).

mFc-hNKG2D [4] = biological target: T1, mFc-hNKG2D; assay: SPR Biacore 8K 37 C; mFc-hNKG2D captured on anti-mFc chip, TriNKET as analyte; kinetics fit; average of 4
Protocol: Association was monitored for 60 seconds, and dissociation was monitored for 60 seconds. Surfaces were regenerated between cycles with three pulses of 10 mM glycine-HCl (pH 1.7) injected for 20 seconds at 100 μL/min.
Two different fits were utilized to obtain the equilibrium affinity data: steady state affinity fit and kinetic fit.

mFc-hNKG2D [5] = biological target: T1, mFc-hNKG2D; assay: SPR Biacore 8K 37 C; mFc-hNKG2D captured on anti-mFc chip, TriNKET as analyte; 1:1 kinetic fit; control sample, n=3
Protocol: as §1

mFc-hNKG2D [6] = biological target: T1, mFc-hNKG2D; assay: SPR Biacore 8K 37 C; mFc-hNKG2D captured on anti-mFc chip, TriNKET as analyte; 1:1 kinetic fit; control sample
Protocol: as §1

mFc-hNKG2D [7] = biological target: T1, mFc-hNKG2D; assay: SPR Biacore 8K 37 C; mFc-hNKG2D captured on anti-mFc chip, TriNKET as analyte; steady state fit; after 0.02% H2O2 24 h
mFc-hNKG2D [8] = biological target: T1, mFc-hNKG2D; assay: SPR Biacore 8K 37 C; mFc-hNKG2D captured on anti-mFc chip, TriNKET as analyte; 1:1 kinetic fit; after 2 wks 40 C at pH 8.0
Protocol: as §1

[9] = biological target: T3, De-sialylated human CLEC12A (human, UniProt Q5QGZ9 65-265, treated with neuraminidase (terminal sialic acids removed)); assay: SPR, two-state fit
T3 construct: Same recombinant antigen as m2 after neuraminidase; also called De-sialylated CLEC12A
T3 sequence: T2 sequence
Protocol: (§2) Briefly, human Fc specific antibodies were covalently immobilized at a density ˜8000-10000 resonance units (RU) on carboxy methyl dextran matrix of a CM5 biosensor chip via amine-coupling chemistry to create an anti-hFc IgG chip. […] Association was monitored for 300 seconds and dissociation was monitored for 600 seconds. Surfaces were regenerated between cycles with three pulses of 10 mM glycine-HCl, pH 1.7 injected for 20 seconds at 100 μl/min. HBS-EP+ (1×) with 0.1 mg/ml BSA was used as running buffer throughout the experiment. Experiments were performed at physiological temperature of 37° C. To obtain kinetic rate constants and overall binding affinity, double-referenced data were fit to a two-state kinetic model using Biacore 8K Insight Evaluation software (Cytiva).

[10] = biological target: T4, De-glycosylated human CLEC12A (human, UniProt Q5QGZ9 65-265, treated with PNGaseF (N-linked glycans removed)); assay: SPR, two-state fit
T4 construct: Same recombinant antigen as m2 after PNGaseF; also called De-glycosylated CLEC12A
T4 sequence: T2 sequence
Protocol: as §2

[11] = biological target: T5, Human CLEC12A-His (recombinant, K244 WT) (human, UniProt Q5QGZ9 65-265); assay: SPR, two-state fit (kd1); fully purified protein after low pH hold
T5 construct: Made in house (Dragonfly Tx); also called hCLEC12A; hCLEC12A-His; not shown: His tag
T5 sequence: T2 sequence

[12] = biological target: T5, Human CLEC12A-His (recombinant, K244 WT); assay: SPR, two-state fit (ka1); after 4 wks 40C in HST pH 6.0
Protocol: as §2

[13] = biological target: T5, Human CLEC12A-His (recombinant, K244 WT); assay: SPR, two-state fit; control (fully purified protein study)
Protocol: as §2

recombinant human CD16b = biological target: T6, recombinant human CD16b (human, UniProt O75015 17-200, limits assumed, biotinylated); assay: SPR 25C, steady state, average
T6 construct: also called FcγRIIIb

[14] = biological target: T7, recombinant human CD16a V158 (human, UniProt P08637 17-208, biotinylated); assay: SPR 25C, kinetic fit, average
T7 construct: also called FcγRIIIa V158; hCD16aV

mFc-hNKG2D [15] = biological target: T8, mFc-hNKG2D (human, UniProt P26718 73-216); assay: SPR; sample after pH 8.0, 40 C, 2 weeks
T8 construct: extracellular domain; Recombinant mFc-tagged NKG2D dimer, made in house; also called human NKG2D; not shown: mouse Fc tag
T8 sequence (looked up): T1 sequence (looked up)

Human CLEC12A-His [16] = biological target: T9, Human CLEC12A-His (human, UniProt Q5QGZ9 65-265); assay: SPR; sample after pH 8.0, 40 C, 2 weeks
T9 construct: Recombinant soluble protein made in house; also called hCLEC12A-His; hCLEC12A; not shown: His tag
T9 sequence: T2 sequence

Human CD16a V158 = biological target: T10, Human CD16a V158 (human, UniProt P08637 17-208, biotinylated); assay: SPR; sample after pH 8.0, 40 C, 2 weeks
T10 construct: Bought recombinant receptor; also called hCD16a (V158); hFcγRIIIa V158
T10 sequence (P08637 17-208 F176V limits assumed): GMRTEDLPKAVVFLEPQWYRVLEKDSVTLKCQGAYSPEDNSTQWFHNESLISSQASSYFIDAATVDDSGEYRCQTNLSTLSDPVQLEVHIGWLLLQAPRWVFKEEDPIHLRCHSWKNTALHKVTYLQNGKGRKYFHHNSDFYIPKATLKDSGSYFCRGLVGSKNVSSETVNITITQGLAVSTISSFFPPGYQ

T7 sequence (P08637 17-208 F176V limits assumed): as above
T6 sequence (O75015 17-200 limits assumed): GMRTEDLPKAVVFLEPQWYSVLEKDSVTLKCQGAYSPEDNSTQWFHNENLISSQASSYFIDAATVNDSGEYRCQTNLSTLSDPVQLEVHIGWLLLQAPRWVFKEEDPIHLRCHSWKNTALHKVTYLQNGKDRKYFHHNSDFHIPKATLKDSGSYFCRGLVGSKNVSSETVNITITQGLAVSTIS

B1: F3'-1602 TriNKET (bispecific antibody, human IgG1, kappa)
chain: QLQLQESGPGLVKPSETLSLTCTVSGFSLTNYGLHWIRQPPGKCLEWIGVIWSGGKTDYNPSLKSRVTISKDTSKNQFSLKLSSVQAADTAVYYCAKYDYDDSLDYWGQGTLVTVSSGGGGSGGGGSGGGGSGGGGSDIQMTQSPSSLSASVGDRVTITCHASQNINFWLSWYQQKPGKAPKLLIYEASNLHTGVPSRFSGSGSGTRFTLTISSLQPEDIATYYCQQSHSYPLTFGCGTKLEIKGSDKTHTCPPCPAPELLGGPSVFLFPPKPKDTLMISRTPEVTCVVVDVSHEDPEVKFNWYVDGVEVHNAKTKPREEQYNSTYRVVSVLTVLHQDWLNGKEYKCKVSNKALPAPIEKTISKAKGQPREPRVYTLPPCRDELTKNQVSLTCLVKGFYPSDIAVEWESNGQPENNYKTTPPVLVSDGSFTLYSKLTVDKSRWQQGNVFSCSVMHEALHNHYTQKSLSLSPG
heavy: EVQLVESGGGLVKPGGSLRLSCAASGFTFSSYSMNWVRQAPGKGLEWVSSISSSSSYIYYADSVKGRFTISRDNAKNSLYLQMNSLRAEDTAVYYCARGAPIGAAAGWFDPWGQGTLVTVSSASTKGPSVFPLAPSSKSTSGGTAALGCLVKDYFPEPVTVSWNSGALTSGVHTFPAVLQSSGLYSLSSVVTVPSSSLGTQTYICNVNHKPSNTKVDKKVEPKSCDKTHTCPPCPAPELLGGPSVFLFPPKPKDTLMISRTPEVTCVVVDVSHEDPEVKFNWYVDGVEVHNAKTKPREEQYNSTYRVVSVLTVLHQDWLNGKEYKCKVSNKALPAPIEKTISKAKGQPREPQVCTLPPSRDELTENQVSLTCLVKGFYPSDIAVEWESNGQPENNYKTTPPVLDSDGSFFLYSWLTVDKSRWQQGNVFSCSVMHEALHNHYTQKSLSLSPG
light: DIQMTQSPSSVSASVGDRVTITCRASQGISSWLAWYQQKPGKAPKLLIYAASSLQSGVPSRFSGSGSGTDFTLTISSLQPEDFATYYCQQGVSFPRTFGGGTKVEIKRTVAAPSVFIFPPSDEQLKSGTASVVCLLNNFYPREAKVQWKVDNALQSGNSQESVTEQDSKDSTYSLSSTLTLSKADYEKHKVYACEVTHQGLSSPVTKSFNRGEC
notes: Trispecific F3' format: CLEC12A scFv-Fc paired with NKG2D Fab-Fc; Stressed and control samples of the stability studies are the same molecule; also called AB0237
- Kd (mFc-hNKG2D [1]): 771 nM
- Kd (Human CLEC12A-His [2]): 1.1 nM
- koff (Human CLEC12A-His [2]): 0.00087 s⁻¹
- kon (Human CLEC12A-His [2]): 806000 M⁻¹ s⁻¹
- Kd (mFc-hNKG2D [3]): 694 nM
- koff (mFc-hNKG2D [3]): 0.125 s⁻¹
- kon (mFc-hNKG2D [3]): 180000 M⁻¹ s⁻¹
- Kd (mFc-hNKG2D [4]): 721 nM
- Kd (mFc-hNKG2D [5]): 661 nM
- koff (mFc-hNKG2D [5]): 0.139 s⁻¹
- kon (mFc-hNKG2D [5]): 211000 M⁻¹ s⁻¹
- Kd (mFc-hNKG2D [6]): 760 nM
- koff (mFc-hNKG2D [6]): 0.129 s⁻¹
- kon (mFc-hNKG2D [6]): 170000 M⁻¹ s⁻¹
- Kd (mFc-hNKG2D [7]): 732 nM
- Kd (mFc-hNKG2D [8]): 905 nM
- koff (mFc-hNKG2D [8]): 0.122 s⁻¹
- kon (mFc-hNKG2D [8]): 135000 M⁻¹ s⁻¹

B2: AB0089 TriNKET (bispecific antibody, human IgG1, kappa)
chain: B1 chain with S53V, K56A, K71V, Y98G, D101G, S103T, R207D, I220F
heavy: B1 heavy
light: B1 light
notes: F3' format heterodimer of three chains; human IgG1 Fc with EW-RVT and Y349C/S354C mutations; also called AB0089 Lot AB0089-002; CLEC12A TriNKET AB0089
- Kd [9]: 0.35 nM
- Kd [10]: 0.09 nM
- koff [11]: 0.0276 s⁻¹
- kon [12]: 7.91e+06 M⁻¹ s⁻¹
- Kd [13]: 0.51 nM

B3: F3'-1602 TriNKET (other)
chain: B1 chain
heavy: B1 heavy
light: B1 light
notes: CLEC12A scFv-Fc, NKG2D A49MI Fab-Fc, human IgG1 Fc; also called AB0237
- Kd (recombinant human CD16b): 7500 nM
- Kd [14]: 238 nM
- koff [14]: 0.022 s⁻¹
- kon [14]: 94000 M⁻¹ s⁻¹

B4: AB0192 TriNKET (other)
chain: EVQLVESGGGVVQPGGSLRLSCAASGFTFNAFGMHWVRQAPGKCLEWVAFISSGSTSIYYANTVKGRFTISRDNSKNTLYLQMNSLRAEDTAVYYCARDGYPTGGAMDYWGQGTSVTVSSGGGGSGGGGSGGGGSGGGGSDIQMTQSPSSLSASVGDRVTITCKASQDIYNYLSWFQQKPGKAPKPLIYRANILVSGVPSRFSGSGSGQDYTFTISSLQPEDIATYYCLQFDAFPFTFGCGTKLEIKGSDKTHTCPPCPAPELLGGPSVFLFPPKPKDTLMISRTPEVTCVVVDVSHEDPEVKFNWYVDGVEVHNAKTKPREEQYNSTYRVVSVLTVLHQDWLNGKEYKCKVSNKALPAPIEKTISKAKGQPREPRVYTLPPCRDELTKNQVSLTCLVKGFYPSDIAVEWESNGQPENNYKTTPPVLVSDGSFTLYSKLTVDKSRWQQGNVFSCSVMHEALHNHYTQKSLSLSPG
heavy: B1 heavy
light: B1 light
notes: the condition stands under assay; also called AB0192 Lot AB0192-005
- Kd (mFc-hNKG2D [15]): 779 nM
- koff (mFc-hNKG2D [15]): 0.121 s⁻¹
- kon (mFc-hNKG2D [15]): 156000 M⁻¹ s⁻¹
- Kd (Human CLEC12A-His [16]): 1.66 nM
- koff (Human CLEC12A-His [16]): 0.00128 s⁻¹
- kon (Human CLEC12A-His [16]): 768000 M⁻¹ s⁻¹
- Kd (Human CD16a V158): 173 nM
- koff (Human CD16a V158): 0.0191 s⁻¹
- kon (Human CD16a V158): 110000 M⁻¹ s⁻¹
